# Where two headings read alike, the source gives them in different places. Square brackets hold non-standard residues; d marks the D form. Ends that are not written are not given here. Peptide text beside a SMILES is read from it.
# T1: parathyroid receptor (PTH1R) (Homo sapiens, UniProt Q03431)
# T1 construct: expressed in transfected cells; host or cells: HEK293
# T1 sequence (Q03431 27-593): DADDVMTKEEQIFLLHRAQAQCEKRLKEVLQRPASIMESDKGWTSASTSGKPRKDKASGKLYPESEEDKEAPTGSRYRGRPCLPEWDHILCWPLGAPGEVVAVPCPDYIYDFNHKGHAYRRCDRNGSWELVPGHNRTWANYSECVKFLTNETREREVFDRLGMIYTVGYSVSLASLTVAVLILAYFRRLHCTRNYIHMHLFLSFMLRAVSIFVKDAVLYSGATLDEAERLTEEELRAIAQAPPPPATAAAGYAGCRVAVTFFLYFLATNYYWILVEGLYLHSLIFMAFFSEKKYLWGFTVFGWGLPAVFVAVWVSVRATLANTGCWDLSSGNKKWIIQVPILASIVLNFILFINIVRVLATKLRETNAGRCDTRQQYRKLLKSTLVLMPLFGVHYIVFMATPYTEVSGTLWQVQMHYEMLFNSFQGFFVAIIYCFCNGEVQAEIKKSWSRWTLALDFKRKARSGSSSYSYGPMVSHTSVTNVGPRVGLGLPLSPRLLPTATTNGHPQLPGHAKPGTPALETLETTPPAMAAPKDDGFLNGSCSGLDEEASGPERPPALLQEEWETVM
# Tests used:
# [1] = target: T2, Proteinase K (ProtK) (Parengyodontium album, UniProt P06873); experiment: in vitro; format: in vitro ADME
# T2 construct: purchased Bioshop
# Protocol: Stocks of 20 μM peptide in 200 μL total volume (10 mM Tris-base, 10 mM NaCl, pH 7.4) were supplemented with 5 μM CaCl2) and 30 uL removed for the untreated T0 sample. Proteinase K (ProtK, Bioshop) was then added to a final concentration of 100 μg/mL. Samples were incubated at 37° C. and 30 μL removed after each time point and protease activity blocked by the addition of 10 mM PMSF (200 mM stock dissolved in isopropanol). Protease inactivated samples were frozen at −20° C. until further use. Digestions were repeated three times. Frozen samples were supplemented with 8 μL sample loading buffer (4× NuPAGE, ThermoFisher Scientific), boiled ([…]) for 10 minutes, and centrifuged (12 000 rpm, 10 min) prior to loading the gel (12% NuPAGE Bis-Tris (ThermoFisher Scientific) with MES running buffer). Gels were run at 200 V for […] and stained using Coomassie Brilliant Blue dye. Densitometry of bands was determined using ImageJ software (40) with back ground subtraction. All samples were normalized to their respective untreated sample (T0).
# [2] = target: T1, parathyroid receptor (PTH1R); experiment: CRE-luciferase reporter assay in HEK293 cells stably expressing PTH1R; format: cell-based
# Protocol: This activates protein kinase A (PKA) to phosphorylate and activate cAMP response element-binding protein (CREB). […] All of the (L)-PTH is degraded in under 1 hr, while more than 85% of the (D)-analog is still detectable at 6 hours.
# (a) (L)-PTH structure and sequence with hotspots highlighted in grey and junctions in black. (b) (D)-PDB match structures and sequences. (c) Final (D)-PTH construction from match sequences and RI (d) HEK293 cells stably expressing PTH1R and CRE-luciferase were stimulated with different concentrations of (L)-, (D)-PTH peptides and Forskolin. Luciferase activity was measured. The experiments were performed in triplicate. (e) Sample gel images of (L)- and (D)-PTH peptides treated with Proteinase K (ProtK) over 5 hours. Gels were stained with Coomassie Brilliant Blue dye and band densitometry calculated using ImageJ (40) with background subtraction. (f) Quantification of remaining peptide post ProtK treatment in […] intervals. Intensity of peptide bands were normalized to the intensity of the untreated peptide (T0) and converted to a percentage relative to T0. […] Error bars are reporting standard error. Data represent the average of 3 independent experiments.
# [3] = tested on: pCDNA3.1 HEK293 cells; experiment: CRE-luciferase reporter assay in control pCDNA3.1 HEK293 cells; format: cell-based; settings: pCDNA3.1 HEK293 cells without GLP1 receptor
# [4] = FDA approved peptide drugs, Table 1; cited from earlier work
# [5] = target: GLP1 receptor (GLP1R) (human, UniProt P43220 24-463); experiment: cell-based or functional assay
# T2 sequence (P06873 106-384): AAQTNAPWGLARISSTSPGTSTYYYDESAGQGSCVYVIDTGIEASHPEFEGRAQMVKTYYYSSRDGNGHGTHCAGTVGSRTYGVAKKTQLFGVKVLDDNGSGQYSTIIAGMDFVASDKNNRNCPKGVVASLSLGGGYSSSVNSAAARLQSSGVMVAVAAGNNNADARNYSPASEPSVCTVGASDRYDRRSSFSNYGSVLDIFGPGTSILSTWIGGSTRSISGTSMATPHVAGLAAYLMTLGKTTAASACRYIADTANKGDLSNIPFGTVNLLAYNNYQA
molecule,measurement,setting,value
CC[C@@H](C)[C@@H](NC(=O)[C@@H](C)NC(=O)[C@@H](CCC(=O)O)NC(=O)[C@H](NC(=O)[C@@H](CC(C)C)NC(=O)[C@@H](CCC(=O)O)NC(=O)CNC(=O)[C@@H](C)NC(=O)[C@@H](C)NC(=O)[C@@H](CC(C)C)NC(=O)[C@H](NC(=O)[C@@H](Cc1ccccc1)NC(=O)[C@@H](CC(C)C)NC(=O)[C@@H](CCC(=O)O)NC(=O)[C@@H](CC(C)C)NC(=O)[C@@H](Cc1ccccc1)NC(=O)[C@@H](C)NC(=O)[C@@H](CCCCN)NC(=O)CNC(=O)[C@H](N)CCCNC(=N)N)[C@H](C)CC)[C@H](C)CC)C(=O)N[C@H](CC(=O)O)C(=O)N[C@H](CCCNC(=N)N)C(=O)N[C@@H](C(=O)N[C@H](Cc1ccccc1)C(=O)N[C@@H](C(=O)NCC(=O)N[C@H](CCC(=O)O)C(=O)N[C@H](C)C(=O)N[C@H](Cc1c[nH]cn1)C(=O)O)[C@H](C)O)[C@H](C)O [(D)-GLP1] (H-[dR]G[dK][dA][dF][dL][dE][dL][dF][dI][dL][dA][dA]G[dE][dL][dI][dE][dA][dI][dD][dR][dT][dF][dT]G[dE][dA][dH]-OH; N-terminus and C-terminus assumed),degradation by ProtK (in words),[1],persists after 5 hours
CC[C@@H](C)[C@@H](NC(=O)[C@@H](CCC(=O)O)NC(=O)[C@@H](CCCNC(=N)N)NC(=O)[C@@H](CCSC)NC(=O)[C@@H](CC(C)C)NC(=O)[C@@H](CC(=O)O)NC(=O)CNC(=O)[C@@H](CCCCN)NC(=O)[C@@H](Cc1c[nH]cn1)NC(=O)[C@@H](CC(N)=O)NC(=O)[C@@H](CCCNC(=N)N)NC(=O)[C@@H](Cc1c[nH]c2ccccc12)NC(=O)[C@@H](CCC(=O)O)NC(=O)[C@H]1CCCN1C(=O)[C@@H](CC(C)C)NC(=O)[C@@H](Cc1ccc(O)cc1)NC(=O)[C@@H](CCSC)NC(=O)[C@@H](CC(C)C)NC(=O)[C@@H](CC(C)C)NC(=O)[C@@H](CCSC)NC(=O)CNC(=O)[C@H](NC(=O)[C@@H](CO)NC(=O)[C@@H](CC(=O)O)NC(=O)[C@@H](C)NC(=O)[C@H](NC(=O)[C@@H](C)NC(=O)[C@@H](CC(C)C)NC(=O)CNC(=O)[C@@H](C)N)C(C)C)C(C)C)C(=O)N[C@H](CCCNC(=N)N)C(=O)N[C@H](CO)C(=O)N[C@H](CCCNC(=N)N)C(=O)N[C@H](CCCCN)C(=O)N[C@@H](C(=O)N[C@H](CO)C(=O)O)C(C)C [(D)-PTH] (H-[dA]G[dL][dA][dV][dA][dD][dS][dV]G[dM][dL][dL][dM][dY][dL][dP][dE][dW][dR][dN][dH][dK]G[dD][dL][dM][dR][dE][dI][dR][dS][dR][dK][dV][dS]-OH; N-terminus and C-terminus assumed),"activation of PTH1R, potency and efficacy (in words)",[2],potency and efficacy comparable to (L)-PTH and Forskolin
same,degradation by ProtK (in words),[1],persists after 5 hours
CC[C@H](C)[C@H](NC(=O)[C@H](Cc1ccccc1)NC(=O)[C@H](CCC(=O)O)NC(=O)[C@H](CCCCN)NC(=O)[C@H](C)NC(=O)[C@H](C)NC(=O)[C@H](CCC(N)=O)NC(=O)CNC(=O)[C@H](CCC(=O)O)NC(=O)[C@H](CC(C)C)NC(=O)[C@H](Cc1ccc(O)cc1)NC(=O)[C@H](CO)NC(=O)[C@H](CO)NC(=O)[C@@H](NC(=O)[C@H](CC(=O)O)NC(=O)[C@H](CO)NC(=O)[C@@H](NC(=O)[C@H](Cc1ccccc1)NC(=O)[C@@H](NC(=O)CNC(=O)[C@H](CCC(=O)O)NC(=O)[C@H](C)NC(=O)[C@@H](N)Cc1c[nH]cn1)[C@@H](C)O)[C@@H](C)O)C(C)C)C(=O)N[C@@H](C)C(=O)N[C@@H](Cc1c[nH]c2ccccc12)C(=O)N[C@@H](CC(C)C)C(=O)N[C@H](C(=O)N[C@@H](CCCCN)C(=O)NCC(=O)N[C@@H](CCCNC(=N)N)C(=O)O)C(C)C [(L)-GLP1],luciferase expression (in words),[3],inactive
CC(C)C[C@H](NC(=O)[C@H](CCCCN)NC(=O)CNC(=O)[C@H](CC(C)C)NC(=O)[C@@H](NC(=O)[C@@H]1CSSC[C@H](N)C(=O)N[C@@H](CO)C(=O)N[C@@H](CC(N)=O)C(=O)N[C@@H](CC(C)C)C(=O)N[C@@H](CO)C(=O)N[C@@H]([C@@H](C)O)C(=O)N1)C(C)C)C(=O)N[C@@H](CO)C(=O)N[C@@H](CCC(N)=O)C(=O)N[C@@H](CCC(=O)O)C(=O)N[C@@H](CC(C)C)C(=O)N[C@@H](Cc1c[nH]cn1)C(=O)N[C@@H](CCCCN)C(=O)N[C@@H](CC(C)C)C(=O)N[C@@H](CCC(N)=O)C(=O)N[C@H](C(=O)N[C@@H](Cc1ccc(O)cc1)C(=O)N1CCC[C@H]1C(=O)N[C@@H](CCCNC(=N)N)C(=O)N[C@H](C(=O)N[C@@H](CC(N)=O)C(=O)N[C@H](C(=O)NCC(=O)N[C@@H](CO)C(=O)NCC(=O)N[C@H](C(=O)N1CCC[C@H]1C(N)=O)[C@@H](C)O)[C@@H](C)O)[C@@H](C)O)[C@@H](C)O [Calcitonin],t½,[4],0.967 h
CC[C@H](C)[C@H](NC(=O)[C@H](Cc1ccccc1)NC(=O)[C@H](CC(=O)O)NC(=O)[C@H](CCCNC(=N)N)NC(=O)[C@H](C)NC(=O)[C@H](C)NC(=O)[C@H](CC(C)C)NC(=O)[C@H](CC(N)=O)NC(=O)[C@H](CC(=O)O)NC(=O)[C@H](CC(C)C)NC(=O)[C@@H](NC(=O)[C@@H](NC(=O)[C@H](CC(N)=O)NC(=O)[C@H](CCSC)NC(=O)[C@H](CCC(=O)O)NC(=O)[C@H](CC(=O)O)NC(=O)[C@H](CO)NC(=O)[C@H](Cc1ccccc1)NC(=O)[C@H](CO)NC(=O)CNC(=O)[C@H](CC(=O)O)NC(=O)CNC(=O)[C@@H](N)Cc1c[nH]cn1)[C@@H](C)O)[C@@H](C)CC)C(=O)N[C@@H](CC(N)=O)C(=O)N[C@@H](Cc1c[nH]c2ccccc12)C(=O)N[C@@H](CC(C)C)C(=O)N[C@H](C(=O)N[C@@H](CCC(N)=O)C(=O)N[C@H](C(=O)N[C@@H](CCCCN)C(=O)N[C@H](C(=O)N[C@H](C(=O)N[C@@H](CC(=O)O)C(=O)O)[C@@H](C)O)[C@@H](C)CC)[C@@H](C)O)[C@@H](C)CC [Teduglutide],t½,[4],1.33 h
"(L)-GLP-2: native GLP-2, gastrointestinal peptide",time until all peptide is degraded,"[1]; exposure to ProtK, 37° C.",about 1 hr
same,degradation by ProtK (in words),[1]; treatment with ProtK over 5 hours,rapid degradation
"(L)-PTH: native parathyroid hormone, residues 1-34",degradation by ProtK (in words),[1],rapid degradation
same,time until all peptide is degraded,[1],under 1 hr
Glucagon,t½,[4],0.25 h
Parathyroid Hormone,t½,[4],3 h
Sermorelin,t½,[4],0.2 h
"Thymosin (Ac-SDAAVDTSSEITTKDLKEKKEVVEEAEN; UniProt P06454 2-29, looked up) [FDA approved peptide drug, hepatitis, cancer]",t½,[4],2 h
[dR]G[dK][dA][dF][dL][dE][dL][dF][dI][dL][dA][dA]G[dE][dL][dI][dE][dA][dI][dD][dR][dT][dF][dT]G[dE][dA][dH] (designed binder) [(D)-GLP1 peptide],"EC50, CRE-luciferase expression",[5],2200 nM
same,potency relative to the native peptide,[5],~40 fold lower

# Reference: patent publication US20210057047A1, “IN-SILICO METHOD FOR DESIGNING A (D)-POLYPEPTIDE LIGAND” (THE GOVERNING COUNCIL OF THE UNIVERSITY OF TORONTO, priority 2018, published 2021)
